From the nanobody polyreactivity screen of Harvey et al. (2022)

Test: yeast display, Sf9 membrane polyspecificity reagent, FACS + sequencing; frameworks hold sequencing errors
In short: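 A synthetic nanobody library was expressed on Saccharomyces cerevisiae BJ5465 by galactose induction for 36–48 hours. The library was stained for 1 hour at 4 °C with 10% biotinylated, detergent-solubilized Sf9 membrane reagent and enriched with streptavidin microbeads before FACS. Low and high (top ~1%) gates were set on anti-HA fluorescence for expression and streptavidin fluorescence for reagent binding, and each polyreactivity label reflects the gate of origin.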

| Sequence | polyreactivity (PSR sort gate) |
| --- | --- |
| QVQLVESGGGLVQAGGSLRLSCAASGFTCSSNAMGWSRLAAGKERELVAAISSSGARTYYADSVKGRFTISRDNAKTTVYLQMNSLKPEDTAVYYCNARGLAGRKGYDYGGQGTQVTVSS | high polyreactivity |
| QVQLVESGGGLVQAGGSLRLSCAASGFTFAANTMGWYRQAPGKERELVADISGRGDRTSYADSVKGRFTISRDNAKNTVYLQMNSLKPEDTAVYYCAVDIYYYSNVHYYYWGQGTQVTVSS | low polyreactivity |
| QVQLVESGGGLVQAGGSLRLSCAASGFTFADYAMGWYRQAPGKEREWVAAISNGGSTTYADSVKGRFTSSRDNAKNTVYLQMNTLNPEDTAVYYCAAALSSYGWYAYGPWYGYWGQGTQVTVSS | high polyreactivity |
| QVQLVESGGGLVQAGGSLRLSCAASGFTFAFNDMGWYRQAPGKERELVAAITWSGGSTYYADSVKGRFTISRDNAKNTVYLQMNSLKPEDTAVYYCNADLLGYVYLNLPVGSWGQGTQVTVSS | low polyreactivity |
| QVQLVESGGGLVQAGGSLRLSCAASGFTFAFYAMGRYRQAPGKERELVAAISRRGGSTTYADSVKGRFTISRDNAKNTVYLQMNSLKPEDTAVYYCNAVSTRNPGPDYYYWGQGTQVTVSS | high polyreactivity |
| QVQLVESGGGLVQAGGSLRLSCAASGFTFAFYAMGWYRQAPGKERELVAAISKNDGTTYYADSVKGRFTISRHTAKNTVYLLMNSLKPEDTAVYYCAAESCYPVYTYVSSGDYWGQGTQVTVSS | low polyreactivity |
| QVQLVESGGGLVQAGGSLRLSCAASGFTFAFYTLGWYIQATGKETELVASISWRSGSTYYADSVKGRFTISRDNAKNSVYLQMNSLNPDDTAVYYCAADSAVSWFFYCGQGTQVTVSS | high polyreactivity |
| QVQLVESGGGLVQAGGSLRLSCAASGFTFAGYAMGWYRLAPGKVRELVAAISWRGGSTYYADSVKGRFTISRDNAKNTVYLQMNSLKPEDTAVYYCAAASRKRTSREPLDYWGQGTQVTVSS | high polyreactivity |
| QVQLVESGGGLVQAGGSLRLSCAASGFTFAGYAMGWYRQAPGKERELVAPINRGGSTYYADSVKGRFTISRDNAKNTVYLQMNSLKQEDTAVYYCADRQEPGWYPDVWWEYDYWGQGTQVTVSS | low polyreactivity |
| QVQLVESGGGLVQAGGSLRLSCAASGFTFALYAMGWYRQAPGKEREFVAAITRSGGITYYADSVKGRFTFSRDNAKNTVYLQINSLKPEDTAVYYCAAVPRWSVYRAYGYWGQGTQVTVSS | high polyreactivity |
| QVQLVESGGGLVQAGGSLRLSCAASGFTFALYAMGWYRQAPGKERELVASIDNGVSTNYADSVKGRFTISRDNAKNTVYLQMTSLKPEDTAVYYCAKGPGYGLYKLLSYDSWGQGTQVTVSS | low polyreactivity |
| QVQLVESGGGLVQAGGSLRLSCAASGFTFANNAMGWYRQAPGKERELVAAISWNGGSTFYADSVKGRFTISRDNAKNTVYLQMNSLKPEDTAVYYCNTVASYYRWKSYYYWGQGTQVTVSS | high polyreactivity |
| QVQLVESGGGLVQAGGSLRLSCAASGFTFAPNAMGWYRQAPGKERELVAAISSASSTYYADSVKGRFTISRDNAKNTVYLQMNSLKPEETAVYYCAAKSSTKQRKYYWGQGTQVTVSS | high polyreactivity |
| QVQLVESGGGLVQAGGSLRLSCAASGFTFARYAMGWYRQAPGKERELVAAINWSGGRTYYADSVKGRFTISRDNAKNTVYLQMNSLKPEDTAVYYCNAWGLVYYSSGYDYWGQGTQVTVSS | high polyreactivity |
| QVQLVESGGGLVQAGGSLRLSCAASGFTFARYAMGWYRQAPGKERELVAAISRGTTTYYADSVKGRFTISRDNAKNTVYLQMNILKPDDTAVYYCAAVTTRTYPGRYYYWGQGTQVTVSS | high polyreactivity |
| QVQLVESGGGLVQAGGSLRLSCAASGFTFASNAMGWYRPAPWKERELVAGISRTGTTTYYADSVKGRFTISRDNAKNTVYLQMNSLKPEDTAVYYCAASKQAVKYRSQRYYYWGQGTQVTVSS | high polyreactivity |
| QVQLVESGGGLVQAGGSLRLSCAASGFTFASNVMGWYRQAPGKERELVAAITSGASTNYADSVKGRFTISRDNAKNTVYLQMNSLKPEDTAVYYCAAGRQWYVFYEFDYWGQGTQVTVSS | high polyreactivity |
| QVQLVESGGGLVQAGGSLRLSCAASGFTFATYAMGWYRQAPGKERELVAAITYRGGRTYYADSVKGRFTISRDNAKNTVYLQMNSLKPEDTAVYYCNTVYPRRLIFGYWGQGTQVTVSS | high polyreactivity |
| QVQLVESGGGLVQAGGSLRLSCAASGFTFAVYAMGWYRQAPGKEREFVADITYDGGSTYYADSVKGRFTISRDNAKNTVYLQMNSLKPEDTAVYYGAAERLGAFQTPSNVSKYYYWGQGSQVTVSS | low polyreactivity |
| QVQLVESGGGLVQAGGSLRLSCAASGFTFAVYAMGWYRQAPGKERELGAAISRSGTRTYYADSVKGRFTFSRDNAKNTVYLQMNSLKPEDTAVYYCATVVILIYDYWGQGTQVSVSS | low polyreactivity |
| QVQLVESGGGLVQAGGSLRLSCAASGFTFAVYVMGWYRQAPGKERELVATISFSVGSTYYADSVKGRFTISGDNAKNTVYLQMNRLKPEDTAVYYCNADPPPEYYPDKDNYWGQGTQVTVSS | low polyreactivity |
| QVQLVESGGGLVQAGGSLRLSCAASGFTFAWYAMGWYRPAPGKERELVAAISGSGGRTYYADSVKGRFTISRDNAKNTVYLQMNSLKPEDTAVYYFNTDRYWGKGDYWGQGTLVTVSS | high polyreactivity |

| Sequence | polyreactivity (PSR sort gate) |
| --- | --- |
| QVQLVESGGGLVQAGGSLRLSCAASGFTFAYNAMGWYRPAPGKERELVAAITTRTGTTYYADSVKGRFTISRDNAKNTVYLQMNSLKPEDTAVYYCAKRGYYRYYYWGQGTLVTVSS | high polyreactivity |
| QVQLVESGGGLVQAGGSLRLSCAASGFTFAYNAMGWYRQAPGKEREFVAAITSSGGSTYYADSVKGRFTISRDYAKNTVYLQMNSLKPEHTAVYYCNAYYTFPRYQYGYWGQGTQVTVSS | high polyreactivity |
| QVQLVESGGGLVQAGGSLRLSCAASGFTFAYYAMGWYRQAPGKERELVAAISERGGSTYYADSVKGRFTISRDNAKNTVYLQMNSLKPEDTAVYYCARTFWDYPWYQSSYYSWGQGTQVTVSS | low polyreactivity |
| QVQLVESGGGLVQAGGSLRLSCAASGFTFAYYAMGWYRQAPGKERELVAAISSGGGSTYYADSVKGRFTISRDNAKNTVYLQMNSLKPEDTAVYYCATTIQISYDSIWYDYWGQGTQVTVSS | high polyreactivity |
| QVQLVESGGGLVQAGGSLRLSCAASGFTFDANAMGWYRQAPGKERELVAAITRFGSTFYADSVKGRFTISRDNAKNTVYLQMNSLKPEDTAVYYCNAARDHVSGYDYWGQGTQVTVSS | low polyreactivity |
| QVQLVESGGGLVQAGGSLRLSCAASGFTFDAYDMGWYRQAPGKERELVAAISWRGIDTTYADSVKGRFTISRDNAKNTVYLQMNSLKPEDTAVYYCAEFVSDATVGPSKGLDYWGQGTQVTVSS | low polyreactivity |
| QVQLVESGGGLVQAGGSLRLSCAASGFTFDAYTMGWYRQAPGKERELVAAINWSGDTTYYADSVKGRFTISRDNAKNTVYFQMNSLKPEDTAVYYCAAVWWIYGVWFDYWGQGTQVTVSS | high polyreactivity |
| QVQLVESGGGLVQAGGSLRLSCAASGFTFDFYAMGWYRPAPGKERELVAAISRSGGRTYYADSVKGRFTISRDNAKNTVYLQMNSLKPEDTAVYYCNTGFFYYNFRYYYWGQGTQVTVSS | low polyreactivity |
| QVQLVESGGGLVQAGGSLRLSCAASGFTFDGYAMGWDRQAPGNERELVAAFSDSGDSTYYADSVKGRFTISRDNAKNTVYLQMNSLTPEDTAVYYCAAGLGYYWSDYFAYDSCGQGTQVTVSS | low polyreactivity |
| QVQLVESGGGLVQAGGSLRLSCAASGFTFDHYAMGWYRQAPGKERELVARITGTGDSTYYADSVKGRFTISRDNAKNTVYLQRNSLKPEDTAVDYCNADRRYDFYDGYGYWGQGTQVTVSS | low polyreactivity |
| QVQLVESGGGLVQAGGSLRLSCAASGFTFDKYAMGWYRQAPGKERELVAAISNSGGRTYYADSVKGRFTISRDNAKNTVYLQMNSLKPEDTAVYYCTIFKDYDYWGQGTQVTVSS | high polyreactivity |
| QVQLVESGGGLVQAGGSLRLSCAASGFTFDNYAMGWYRQAPGKERELVAAINWSGDRTYYADSVKGRFTISRDNAKNTVYLQMNSQIPEDTAVYYCNAVTSWAGSLDYWGQGTQVTVSS | high polyreactivity |
| QVQLVESGGGLVQAGGSLRLSCAASGFTFDPDAMGWYRQAPGKERELVASITWSGDNTYYADSVKGRFSISRDNAKTTVYLQMNSLKPEDTAVYYCNVEWAWWSTRYDSWGQGTQVTVSS | high polyreactivity |
| QVQLVESGGGLVQAGGSLRLSCAASGFTFDSNVMGWYRQAPGKEREVVAAITGDDTTYYADSVKGRFTISRDNAKNTVYLQMNSLKPEDTAVYYCAADETESLEYTAYDMYYWGQGTQVTVSS | low polyreactivity |
| QVQLVESGGGLVQAGGSLRLSCAASGFTFDSYAMGWYRQAPGKERELVASISSSGSTNYADSVKGRFTISRDNAKNTVYLQMNSLKPEDTAVYYCAAESRYPFIYEYWGQGTQVTVSS | low polyreactivity |
| QVQLVESGGGLVQAGGSLRLSCAASGFTFDTYDMGWYRQAPGKERELVAAIDWSGVSTYYADSVKGRFTISRDNAKNTVYLQMNSLKPEDTAVYYCAADLWQYDIASWDYTYDYWGQGTQVTVSS | low polyreactivity |
| QVQLVESGGGLVQAGGSLRLSCAASGFTFDWNAMGWYRQAPGKERELVAAISNSDGSTYYADSVKGRFTISRDNAKNTVYLQMNSLKPEDTAVYYCNKLYRGGWYAYWGQGTQVTVSS | low polyreactivity |
| QVQLVESGGGLVQAGGSLRLSCAASGFTFDYNAMGWYRQAPGKERELVAVISSSGSRTYYADSVKGRFTISRDIAKITVYLQINSLNPEDTAVYYCAAARIGTRDYWGQGTQVSVSS | high polyreactivity |
| QVQLVESGGGLVQAGGSLRLSCAASGFTFDYNTMGWYRQAPGKEIELVAGISRGGGSTYYADSVKGRFTISRDNAKNTVYLQMNSLKPEVTAVYYCNTVLKRQRKNEYWGQGTQVTVSS | high polyreactivity |
| QVQLVESGGGLVQAGGSLRLSCAASGFTFDYYAMGWYRQAPGKERELVAAISWSGSTTYYADSVKGRFTISRDNAKNTVYLQMNSLKPEDTAVYYCATNLDRPFDYWGQGTQVTVSS | high polyreactivity |
| QVQLVESGGGLVQAGGSLRLSCAASGFTFDYYAMGWYRQAPGKERELVAAITSDGSTYYADSVKGRFTISRDNAKNTVYLQMNSLKPEDTAVYYCAADGISLYATAYDYWGQGTQVTVSS | low polyreactivity |
